From US20040146519A1

These substances were tested against HLA-A*2401 (human) (assay: inhibition of 125I probe peptide binding to purified HLA).

Substance	relative binding ratio
CEA peptide, position 248, 10 amino acids	0.0002
CEA peptide, position 137, 8 amino acids	0.0006
CEA peptide, position 27, 10 amino acids	0.03
CEA peptide, position 42, 11 amino acids	-0.0005
CEA peptide, position 94, 8 amino acids	0.0003
CEA peptide, position 448, 8 amino acids	0.0005

Now from value to substance:

relative binding ratio	Substance
0.001	CEA peptide, position 118, 8 amino acids
0.0002	CEA peptide, position 390, 10 amino acids
0.0009	CEA peptide, position 356, 8 amino acids
